This note sets out measurements from patent US20250011448A1 (STAIDSON BIOPHARMA, published 2025).

Residue numbers refer to the chain shown, from its start.

Assay [1] addresses T1, human TNFR2 expressed on cells (Expi293 cells stably expressing huTNFR2) (human, UniProt P20333 23-461).
T1 construct: whole, on cells; Also used here as the target of the Treg assay (native TNFR2 on human primary Treg cells); also called huTNFR2 expressed cells; Expi293-TNFR2 cells
T1 sequence (looked up): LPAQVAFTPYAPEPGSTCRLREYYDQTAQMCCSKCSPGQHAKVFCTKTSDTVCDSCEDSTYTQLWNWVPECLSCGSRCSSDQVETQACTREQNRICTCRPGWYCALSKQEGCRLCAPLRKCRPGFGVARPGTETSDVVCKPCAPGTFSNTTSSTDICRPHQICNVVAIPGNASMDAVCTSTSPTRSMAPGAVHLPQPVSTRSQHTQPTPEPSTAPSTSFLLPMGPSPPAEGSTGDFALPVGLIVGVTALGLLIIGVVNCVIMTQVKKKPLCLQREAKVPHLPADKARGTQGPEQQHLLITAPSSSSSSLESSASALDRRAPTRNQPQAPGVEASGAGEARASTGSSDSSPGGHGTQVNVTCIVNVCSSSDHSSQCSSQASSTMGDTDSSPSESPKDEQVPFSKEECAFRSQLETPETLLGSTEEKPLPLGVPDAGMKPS
Put plainly: flow cytometry: inhibition of binding of 10 nM Alexa Fluor 647 human TNFα to Expi293 cells expressing huTNFR2. The protocol: Expi293 cells stably expressing huTNFR2 were incubated with anti-TNFR2 antibodies for 30 minutes at 4° C. […] Cells were washed and acquired by flow cytometry with Attune. Data were analyzed with FlowJo software. TNFα binding is represented as MFI.
As shown in Table 10 and FIG. 4B, the anti-TNFR2 chimeric antibodies, 51B5, 85G8.4, 29G3, 11C1, and 15H10 inhibited soluble TNFα binding to TNFR2-expressing Expi293 cells dose-dependently and potently.
For orientation: In flow cytometry, cells or beads pass a laser one at a time.

In assay [2] the target is T1, human TNFR2 expressed on cells (Expi293 …). The assay can be described thus: flow cytometry on Expi293 cells stably expressing huTNFR2. Here is the method:
The coding sequence of huTNFR2 (Uniprot, P20333) was cloned into a lentiviral vector and the virus was packaged according to the instruction of the virus packaging kit (Lenti-X™ Packaging Single Shots, Cat #631275, Takada). The Expi293 cells were transduced with the recombinant virus and selected by puromycin. The cell line stably expressing huTNFR2 was incubated with anti-TNFR2 antibodies in PBS with 0.5% BSA, 1 mM EDTA, and 0.1% sodium azide (FACS buffer) for 30 minutes at 4° C. The cells were washed, and then incubated with 10 nM phycoerythrin (PE) conjugated anti-Human Fe Ab (Biolegend, cat #409304) for 20 minutes at 4° C. Cells were washed and then […] by flow cytometry with Attune (ThermoFisher Scientific). Data were analyzed with FlowJo software. Antibody binding is represented as median fluorescence intensity (MFI).
As shown by the results in Table 9 and FIG. 4A, the anti-TNFR2 antibodies, 51B5, 102E4, 85G8.4, 29G3, 11C1, and 15H10 bind to Expi293-TNFR2 cells dose-dependently and potently.

Assay [3] concerns the target T2, cynomolgus monkey TNFR2 extracellular domain as used in the blocking ELISA (cynomolgus monkey, UniProt P20333 23-257 (human entry)).
T2 construct: also called cynoTNFR2
T2 chain: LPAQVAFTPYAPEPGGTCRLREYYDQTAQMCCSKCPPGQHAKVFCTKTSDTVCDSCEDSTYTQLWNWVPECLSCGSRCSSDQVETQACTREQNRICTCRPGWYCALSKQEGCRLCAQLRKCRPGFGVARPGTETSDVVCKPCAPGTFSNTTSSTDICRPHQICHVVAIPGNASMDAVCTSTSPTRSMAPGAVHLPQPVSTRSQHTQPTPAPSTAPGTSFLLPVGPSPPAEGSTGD
The assay can be described thus: blocking ELISA: antibody pre-mixed with cynoTNFR2, binding of cynoTNFR2 to coated cynomolgus monkey TNFα read out. Here is the method: 96-well round bottom ELISA plates were coated overnight at 4° C. with 50 μL/well of 0.5 μg/mL human TNFα recombinant protein (R&D system, Cat #210-TA-100) in coating buffer. After removing the coating solution, blocking buffer was added into the plates followed by incubation at room temperature for 1 hour in order to block unspecific binding. During the blocking period, hybridoma antibodies samples were mixed with 0.5 μg/mL TNFR2-huFc at a 1:1 volume ratio and incubated at room temperature for another 1.5 hours. Then 50 μL/well of antigen-antibody mix solution was transferred into TNFα coated wells and incubated at room temperature for 1.5 hours. Plates were then washed 5 times with wash buffer. Then, 50 μL/well of goats anti-human IgG Fc-AP (Southern Biotech, cat #2014-04) at 1:2000 dilution in assay buffer was added, incubated at room temperature for 1 hour, washed 4 times with wash buffer and developed for 30 minutes with 50 μL/well of pNPP substrate. Plates were analyzed with a Synergy HT (Bio-TEK) at 405 nm. Parental hybridomas with the desired human and cynoTNFR2 binding as well as the ability to block human TNFR2 and human TNFα binding were prioritized for subcloning and further characterization. Subcloning was carried out with limited dilution and visual inspection was performed to ensure clonality. Hybridoma subclones were screened with the same binding and blocking assays and selected positive hits were cryopreserved.
TNFR2 blocking by purified recombinant chimeric antibodies: Human TNFR2 blocking ELISA was performed on purified recombinant chimeric antibodies following the same protocol as described above, except that 50 μL/well of serial dilution of purified antibodies (starting at 10 μg/mL, 1:3 dilution) in assay buffer was added into the reaction. The blocking IC₅₀ value represents the antibody concentration that inhibited 50% of huTNFR2 or cynoTNFR2 binding to coated human TNFα or cynomolgus monkey TNFα.
Background: An ELISA detects its analyte on a solid surface through an enzyme-linked reagent.

B1: 29G3 chimeric anti-TNFR2 antibody (antibody, V domains shown)
VH: EVMLVESGGASVKPGGSLKLSCAASGFTFSNFAMSWVRQTPEKRLEWVATIRSGDNYSYYSDNVKGRFTISRDNARNTLYLQMSSLRSKDTSIYYCARNWDKVFDYWGQGTTLTVSS
VL: DIVLTQSPASLAVSLGQRATISCRASESVDSYGYSFMHWYQQKPGQPPKLLIYRASNLKSGIPARFSGSGSRTDFTLTINPVEADDVATYYCQQSNEDHTFGGGTKLEIK
notes: Chimeric: mouse variable domains with human constant regions, made as recombinant IgG1
For B1, the IC50 in assay [1] came to 0.275 nM; in assay [3], 0.927 nM. This molecule also showed an EC50 in assay [2] of 0.654 nM.

B2: 85G8.4 chimeric anti-TNFR2 antibody (antibody, V domains shown)
VH: EVQLQQSGPELVKPGASVKISCKTSGYTFTDFNMDWVKQSHGKSLEWIGYINPNNGDAAYNQKFKSKATLTVDKSSNTAYMELHSLTSDDSAVYYCARWGWAFAYWGQGTLVTVSA
VL: DIVMTQSHKIMSTSVGDRVSITCKASQDVKTAVAWYQQKPGQSPKLLIYATSYRYTGVPDRFTGSGSGTDFTFTISTVQAEDLAVYYCQQHYSIPYTFGGGTKLEIK
notes: as for B1
With B2, the IC50 in assay [1] was found to be 1.57 nM; in assay [3], 1.02 nM. Further, the EC50 in assay [2] came to 1.47 nM.

B3: 15H10 chimeric anti-TNFR2 antibody (antibody, V domains shown)
VH: DVQLQESGPGLVTPSQSLSLTCSVTGYSITSGYYWNWIRQFPGNKLEWMGYITYDGNNNYNPSLKSRFSITRDTSKNQFFLKLNSVTSEDTATYYCARGDYGDSAMDYWGQGTSVTVSS
VL: EIVLTQSPAITAASLGQKVTITCSASSGVNYMHWYQQKSGTSPKPWIYEISKLASGVPARFSGSGSGTSYSLTISSMEAEDAAIYYCQQWNYPLITFGAGTKVELK
notes: as for B1
With B3, the IC50 in assay [1] turned out to be 3.37 nM; in assay [3] it was 1.01 nM. In assay [2], this molecule returned an EC50 of 2.52 nM.

B4: 11C1 chimeric anti-TNFR2 antibody (antibody, V domains shown)
VH: B3 VH with Q5R, F41I, N61D, S66N, F68I, K82T
VL: B3 VL with G28S, N30S, T73I, V103L
notes: as for B1
As to B4, the IC50 in assay [1] is 2.51 nM; in assay [3], 1.09 nM. In assay [2], the EC50 amounted to 2.04 nM.

As usually defined, the IC50 is the point on the concentration scale where inhibition reaches its midpoint. By EC50 is commonly meant the midpoint of the concentration-response curve.
